Values quoted from earlier work as cited in patent US20060160174A1, “Modified l49-sfv exhibiting increased stability and methods of use thereof” (priority 2002, published 2006).

What was measured:
[1] = cited from earlier work
p97 = target: T1, p97 (Homo sapiens, UniProt P08582); details: parental molecule expressed in the E. coli periplasm; cited from earlier work
T1 sequence (P08582 20-709): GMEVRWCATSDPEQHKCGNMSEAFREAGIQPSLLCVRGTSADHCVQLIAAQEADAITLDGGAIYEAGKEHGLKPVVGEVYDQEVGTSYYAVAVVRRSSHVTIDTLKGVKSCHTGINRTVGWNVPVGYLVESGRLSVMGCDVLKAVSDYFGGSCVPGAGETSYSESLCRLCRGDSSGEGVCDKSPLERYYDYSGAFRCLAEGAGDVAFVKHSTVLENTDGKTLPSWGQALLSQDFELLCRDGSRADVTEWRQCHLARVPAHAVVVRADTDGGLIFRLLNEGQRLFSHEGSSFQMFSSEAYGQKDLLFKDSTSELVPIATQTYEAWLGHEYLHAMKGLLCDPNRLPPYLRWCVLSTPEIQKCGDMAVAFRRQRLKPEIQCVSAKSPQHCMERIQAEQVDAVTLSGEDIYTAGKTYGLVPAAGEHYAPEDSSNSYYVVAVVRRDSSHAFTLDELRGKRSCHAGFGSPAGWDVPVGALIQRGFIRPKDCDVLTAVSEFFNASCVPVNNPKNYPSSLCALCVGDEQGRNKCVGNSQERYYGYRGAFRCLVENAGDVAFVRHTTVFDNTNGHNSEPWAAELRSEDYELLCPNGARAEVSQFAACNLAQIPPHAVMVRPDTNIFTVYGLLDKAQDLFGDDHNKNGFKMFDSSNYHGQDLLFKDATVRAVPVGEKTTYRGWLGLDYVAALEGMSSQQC

B1: L49-sFv-bL: parental L49 single-chain Fv fused to Enterobacter cloacae β-lactamase, solubly expressed in the E. coli periplasm (Siemers et al., 1997) (protein)
scFv: MEVQLQESGPSLVKPSQTLSLTCSVTGDSITSGYWNWIRKFPGNKLEYMGYISDSGITYYNPSLKSRISITRDTSKNQYYLQLNFVTAEDTATYNCARRTLATYYAMDYWGQGTSVTVSSGSTSGSGKPGSGEGSTKGDFVMTQTPLSLPVSLGDQASISCRASQSLVHSNGNTYLHWYLQKPGQSPKLLIYRVSNRFSGVPDRFSGSGSGTDFTLKISRVEAEDLGVYFCSQSTHVPPTFGGGTKLEIKRTPVSEKQLAEVVANTITPLMKAQSVPGMAVAVIYQGKPHYYTFGKADIAANKPVTPQTLFELGSISKTFTGVLGGDAIARGEISLDDAVTRYWPQLTGKQWQGIRMLDLATYTAGGLPLQVPDEVTDNASLLRFYQNWQPQWKPGTTRLYANASIGLFGALAVKPSGMPYEQAMTTRVLKPLKLDHTWINVPKAEEAHYAWGYRDGKAVRVSPGMLDAQAYGVKTNVQDMANWVMANMAPENVADASLKQGIALAQSRYWRIGSMYQGLGWEMLNWPVEANTVVETSFGNVALAPLPVAEVNPPAPPVKASWVHKTGSTGGFGSYVAFIPEKQIGIVMLANTSYPNPARVEAAYHILEALQ
tumor to blood ratio ([1]; 24-48 hours after the fusion protein was administered): 141-150 :1
terminal half-life t1/2β ([1]; clearance from systemic circulation): 2.5 h
Kd (p97): 1 nM
